{"source": "patent US20180271973A1", "biological_target": "CH505 transmitted/founder (T/F) Env gp120 (HIV-1)", "experiment": "surface plasmon resonance", "data": [{"substance": "CH103 UCA (unmutated common ancestor of the CH103 CD4 binding site bnAb lineage) (antibody)", "values": [{"measurement": "Kd", "value": 0.2, "unit": "µM"}]}]}
